Source: publication PMC6419104, “Structural basis of guanine nucleotide exchange for Rab11 by SH3BP5” (Life Science Alliance, 2019)

Legend:
[1] = biological target: T1, SH3BP5 (10–276) (human, UniProt O60239 10-276); assay: crystal structure; SH3BP5 (10–276)–Rab11a (1–173) complex at 6.2 g/l, sitting drop vapor diffusion at 20°C; reservoir 0.4–0.75 M NaCl, 0.1 M NaH2PO4 (pH 6.8), 15–17% PEG2000; 3.8 Å; four complexes in the asymmetric unit; details: both partners purified
T1 construct: Residues 10–41 and 268–276 were invisible in the electron density; The purification of this construct and of the complex is not described; also called wild-type SH3BP5 (10–276); source: E. coli Rosetta (DE3)
T1 sequence (looked up): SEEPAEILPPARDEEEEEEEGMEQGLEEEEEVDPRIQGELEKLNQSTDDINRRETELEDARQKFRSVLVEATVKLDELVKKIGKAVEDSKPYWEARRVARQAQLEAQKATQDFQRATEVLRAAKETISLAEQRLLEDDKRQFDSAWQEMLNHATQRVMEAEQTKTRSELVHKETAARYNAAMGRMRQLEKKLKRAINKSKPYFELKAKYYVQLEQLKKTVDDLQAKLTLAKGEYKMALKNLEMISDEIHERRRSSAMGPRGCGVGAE

[2] = biological target: Rab11a (1–211) E39A (human) (UniProt P62491)
[3] = biological target: Rab11a (1–211) L38A (human) (UniProt P62491)
[4] = biological target: Rab11a (1–211) K41A (human) (UniProt P62491)
[5] = biological target: Rab11a (1–211) S40A (human) (UniProt P62491)
[6] = biological target: Rab11a (1–211) S42A (human) (UniProt P62491)
[7] = biological target: Rab11a (1–173) (human) (UniProt P62491)

B1: Rab11a (1–173) (domain or fragment, human, UniProt P62491 1-173, looked up)
chain: MGTRDDEYDYLFKVVLIGDSGVGKSNLLSRFTRNEFNLESKSTIGVEFATRSIQVDGKTIKAQIWDTAGQERYRAITSAYYRGAVGALLVYDIAKHLTYENVERWLKELRDHADSNIVIMLVGNKSDLRHLRAVPTDEARAFAEKNGLSFIETSALDSTNVEAAFQTILTEIY
notes: human Rab11a, residues 1–173; Nucleotide-free in the complex structure (a phosphate ion on the P loop); loaded with Mant-GDP in the GEF assay; source: E. coli Rosetta (DE3), purified (Ni-NTA, Ulp1 cleavage, Superdex200, second Ni-NTA); not shown: His6-SUMO, N-terminal, cleaved
**Q.** Does B1 bind [1]?
**A.** Result: binds

B2: SH3BP5 (41–266; R260A/R261A/R262A) (domain or fragment)
chain: VDPRIQGELEKLNQSTDDINRRETELEDARQKFRSVLVEATVKLDELVKKIGKAVEDSKPYWEARRVARQAQLEAQKATQDFQRATEVLRAAKETISLAEQRLLEDDKRQFDSAWQEMLNHATQRVMEAEQTKTRSELVHKETAARYNAAMGRMRQLEKKLKRAINKSKPYFELKAKYYVQLEQLKKTVDDLQAKLTLAKGEYKMALKNLEMISDEIHEAAASSAM
**Q.** Which results are given for B2?
**A.** GEF activity: Mant-GDP release from Rab11a by fluorescence, with GppNHp (% of the wild-type activity) [2]: 50; GEF activity: Mant-GDP release from Rab11a by fluorescence, with GppNHp (% of the wild-type activity) [3]: 50; GEF activity: Mant-GDP release from Rab11a by fluorescence, with GppNHp (% of the wild-type activity) [4]: 25; GEF activity: Mant-GDP release from Rab11a by fluorescence, with GppNHp (% of the wild-type activity) [5]: 25; GEF activity: Mant-GDP release from Rab11a by fluorescence, with GppNHp (% of the wild-type activity) [6]: 25

B3: SH3BP5-RA E251A (domain or fragment)
chain: VDPRIQGELEKLNQSTDDINRRETELEDARQKFRSVLVEATVKLDELVKKIGKAVEDSKPYWEARRVARQAQLEAQKATQDFQRATEVLRAAKETISLAEQRLLEDDKRQFDSAWQEMLNHATQRVMEAEQTKTRSELVHKETAARYNAAMGRMRQLEKKLKRAINKSKPYFELKAKYYVQLEQLKKTVDDLQAKLTLAKGEYKMALKNLAMISDEIHEAAASSAM
**Q.** For B3, which GEF activity: Mant-GDP release from Rab11a by fluorescence, with GppNHp (%, relative to wild type) [7] is on record?
**A.** Its GEF activity: Mant-GDP release from Rab11a by fluorescence, with GppNHp (%, relative to wild type) is 50.
